Data: the supplement of paper PMC6379048

What was measured:
RBM4 = biological target: T1, RBM4 (UniProt Q9BWF3); test: Kd (EC50 corrected by depletion factor)
T1 sequence: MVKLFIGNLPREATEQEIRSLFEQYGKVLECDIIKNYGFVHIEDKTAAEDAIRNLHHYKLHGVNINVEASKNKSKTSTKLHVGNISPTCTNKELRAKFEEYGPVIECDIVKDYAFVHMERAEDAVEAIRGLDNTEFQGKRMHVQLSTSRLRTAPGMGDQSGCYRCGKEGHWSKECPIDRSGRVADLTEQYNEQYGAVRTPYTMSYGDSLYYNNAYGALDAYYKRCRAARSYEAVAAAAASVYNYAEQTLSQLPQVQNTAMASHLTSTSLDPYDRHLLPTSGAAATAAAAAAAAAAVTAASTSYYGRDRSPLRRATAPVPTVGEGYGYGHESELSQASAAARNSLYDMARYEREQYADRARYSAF
Outline: (§1)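 To obtain EC50, data were fitted with a four-parameter log-logistic model; Kd was then EC50 multiplied by a protein-dependent depletion factor. Beforehand, free RNA oligos (0 nM to 30 μM) were pre-incubated with HEK293-FT lysate (2.5 mg protein/well) for 1 h at 4°C. The lysate then spent 30 min at 4°C with the same 5′-amino-C6 oligos coupled to NHS-Sepharose beads, and bound proteins were quantified by label-free LC-MS/MS, normalised to the control.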

SRSF9 = SRSF9 (UniProt Q13242); test: Kd (EC50 corrected by depletion factor)
Outline: as §1

RPSA = RPSA (UniProt P08865); test: EC50 of free RNA motif oligo competing protein binding to immobilised probe
Outline: as §1

RPS19 = RPS19 (UniProt P39019); test: as above
Outline: as §1

RBM7 = biological target: T2, RBM7 (UniProt Q9Y580); test: Kd (EC50 corrected by depletion factor)
T2 sequence: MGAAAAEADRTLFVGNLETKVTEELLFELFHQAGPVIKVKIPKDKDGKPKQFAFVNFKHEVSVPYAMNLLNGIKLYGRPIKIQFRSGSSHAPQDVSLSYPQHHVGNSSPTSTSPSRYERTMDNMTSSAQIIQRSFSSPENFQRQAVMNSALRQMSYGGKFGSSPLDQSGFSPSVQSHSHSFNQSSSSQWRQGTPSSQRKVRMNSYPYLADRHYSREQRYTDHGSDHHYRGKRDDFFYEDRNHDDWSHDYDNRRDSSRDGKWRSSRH
Outline: as §1

LSM4 = biological target: T3, LSM4 (UniProt Q9Y4Z0); test: Kd (EC50 corrected by depletion factor)
T3 sequence: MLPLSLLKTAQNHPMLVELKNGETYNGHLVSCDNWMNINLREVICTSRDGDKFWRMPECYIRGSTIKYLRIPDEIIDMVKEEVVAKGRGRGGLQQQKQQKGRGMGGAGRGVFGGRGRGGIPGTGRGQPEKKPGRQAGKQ
Outline: as §1

HNRNPAB = HNRNPAB (UniProt Q99729); test: Kd (EC50 corrected by depletion factor)
Outline: as §1

CHERP = biological target: T4, CHERP (UniProt Q8IWX8); test: Kd (EC50 corrected by depletion factor)
T4 sequence: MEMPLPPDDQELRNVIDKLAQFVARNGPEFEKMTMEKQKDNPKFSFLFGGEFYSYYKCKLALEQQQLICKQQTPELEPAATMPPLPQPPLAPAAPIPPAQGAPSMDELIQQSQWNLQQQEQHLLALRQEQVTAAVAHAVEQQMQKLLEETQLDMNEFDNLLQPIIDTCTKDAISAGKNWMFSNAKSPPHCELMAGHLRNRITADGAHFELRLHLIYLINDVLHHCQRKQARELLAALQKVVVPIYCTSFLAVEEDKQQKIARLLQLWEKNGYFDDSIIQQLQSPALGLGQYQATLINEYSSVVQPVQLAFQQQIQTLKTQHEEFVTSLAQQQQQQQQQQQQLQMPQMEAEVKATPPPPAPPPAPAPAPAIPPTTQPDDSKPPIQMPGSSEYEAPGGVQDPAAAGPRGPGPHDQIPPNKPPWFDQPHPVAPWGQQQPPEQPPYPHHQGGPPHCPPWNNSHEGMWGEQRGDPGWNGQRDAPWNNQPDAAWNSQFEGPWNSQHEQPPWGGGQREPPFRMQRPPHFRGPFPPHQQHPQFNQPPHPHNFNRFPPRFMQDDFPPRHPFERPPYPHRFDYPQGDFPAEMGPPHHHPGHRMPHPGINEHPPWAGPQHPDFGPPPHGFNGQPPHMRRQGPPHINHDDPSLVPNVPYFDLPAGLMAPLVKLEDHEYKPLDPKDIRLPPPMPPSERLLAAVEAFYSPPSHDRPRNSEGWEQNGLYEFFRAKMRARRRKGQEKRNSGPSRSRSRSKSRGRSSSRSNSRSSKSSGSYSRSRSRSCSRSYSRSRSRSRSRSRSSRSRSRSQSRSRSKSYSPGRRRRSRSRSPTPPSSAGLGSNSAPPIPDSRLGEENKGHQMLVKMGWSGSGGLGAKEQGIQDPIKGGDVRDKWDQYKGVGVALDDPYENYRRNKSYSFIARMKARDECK
Outline: as §1

MRPS7 = MRPS7 (UniProt Q9Y2R9); test: EC50 of free RNA motif oligo competing protein binding to immobilised probe
Outline: as §1

HNRNPA1 = HNRNPA1 (UniProt P09651); test: as above
Outline: as §1

Chain of HNRNPAB (Q99729 whole entry): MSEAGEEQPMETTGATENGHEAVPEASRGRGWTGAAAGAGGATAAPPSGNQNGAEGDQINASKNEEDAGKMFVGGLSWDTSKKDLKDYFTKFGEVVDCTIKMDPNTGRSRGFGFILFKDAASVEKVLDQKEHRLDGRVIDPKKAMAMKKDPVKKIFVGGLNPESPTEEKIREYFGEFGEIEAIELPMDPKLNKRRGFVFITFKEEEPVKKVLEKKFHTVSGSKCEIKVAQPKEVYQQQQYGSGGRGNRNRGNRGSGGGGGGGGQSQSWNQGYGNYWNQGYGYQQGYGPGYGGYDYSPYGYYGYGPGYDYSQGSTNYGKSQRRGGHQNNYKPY
Chain of SRSF9 (Q13242 whole entry): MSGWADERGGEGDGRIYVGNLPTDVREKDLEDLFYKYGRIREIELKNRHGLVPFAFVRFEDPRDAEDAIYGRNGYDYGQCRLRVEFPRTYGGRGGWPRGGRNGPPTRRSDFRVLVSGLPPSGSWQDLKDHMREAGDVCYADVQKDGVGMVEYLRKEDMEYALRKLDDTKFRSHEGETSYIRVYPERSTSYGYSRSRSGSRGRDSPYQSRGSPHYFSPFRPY
Chain of HNRNPA1 (P09651 whole entry): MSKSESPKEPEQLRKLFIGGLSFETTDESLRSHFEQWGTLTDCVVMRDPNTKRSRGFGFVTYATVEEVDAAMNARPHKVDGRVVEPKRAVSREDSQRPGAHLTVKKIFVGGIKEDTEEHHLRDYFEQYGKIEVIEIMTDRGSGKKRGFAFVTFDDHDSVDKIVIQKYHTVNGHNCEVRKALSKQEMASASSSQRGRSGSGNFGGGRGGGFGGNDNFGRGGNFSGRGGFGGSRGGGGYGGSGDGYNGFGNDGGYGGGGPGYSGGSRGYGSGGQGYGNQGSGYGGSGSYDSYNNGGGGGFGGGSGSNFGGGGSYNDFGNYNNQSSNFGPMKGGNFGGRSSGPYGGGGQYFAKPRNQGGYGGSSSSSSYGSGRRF

In the case of CUGUCCU, the Kd (RBM4) is reported as 131 nM, the Kd (SRSF9) is reported as 2230 nM and the EC50 (RPSA) is reported as 491 nM. The EC50 (RPS19) was 176 nM.

AAUAAA gave a Kd (RBM4) of 344 nM, a Kd (RBM7) of 156 nM and a Kd (LSM4) of 70.5 nM. The Kd (HNRNPAB) was 464 nM and the Kd (CHERP) was 255 nM.

For UAUUUAU, the Kd (RBM7) was 81.2 nM, the Kd (LSM4) was 241 nM and the Kd (SRSF9) was 5920 nM. It also gave a Kd (HNRNPAB) of 2300 nM, a Kd (CHERP) of 19.4 nM and an EC50 (MRPS7) of 84.2 nM. For the same sequence, the EC50 (HNRNPA1) was 2950 nM.
